# Values of other authors, collected in article PMC3325482.
# Target: Cd200R (Rattus norvegicus) (UniProt Q9ES58)
# Sequence of UniProt Q9ES58 (Q9ES58 24-239): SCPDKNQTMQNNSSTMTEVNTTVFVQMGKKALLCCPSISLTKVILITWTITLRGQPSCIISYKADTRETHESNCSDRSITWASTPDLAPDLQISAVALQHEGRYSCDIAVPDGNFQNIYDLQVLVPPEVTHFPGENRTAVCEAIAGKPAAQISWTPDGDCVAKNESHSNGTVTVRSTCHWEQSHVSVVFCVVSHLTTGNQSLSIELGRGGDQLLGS
substance,measurement,value
Cd200 (from UniProt P04218),Kd,2 µM
